Tested on: Micrococcus lysodelkticus cells
Assay: Lysozyme enzyme activity assay
Assay type: biochemical
Details: micropost tips 80% lysozyme, 20% PEO 200k vs uncompressed
Description: […] assays were performed on the dissolved solution.
To measure the activity of lysozyme, the assay provided by Sigma Aldrich was used which measures the amount of lysed Micrococcus lysodelkticus cells. Briefly, a 200 unit/mL Lysozyme solution in 50 mM Potassium Phosphate Buffer was added to a 0.015% [w/v] Micrococcus lysodeiklicus cell suspension in the same buffer. The decrease was recorded in A450 over 5 minutes. Nine micropost tips were fabricated from 80% lysozyme and 20% PEO 200k and dissolved sets of three micropost tips together. Triplicate assays were performed on each dissolved solution for a total of nine tests and the results were compared to the results of a solution made with lysozyme that was not compressed into a micropost tip.

lysozyme was tested, and the “enzymatic activity after the manufacturing process” value was “maintain their activity”.

Reference: patent US11607390B2, “Self-righting systems and related components and methods” (priority 2017, dated 2023)
